# Laboratory results from patent US9395368B2, “Methods, agents and peptides for inducing an immune response to matrix metalloproteinase-2 expressing tumors” (New York University, priority 2010, dated 2016).
# B1: active MMP-2: Purified human MMP-2 (mixture of the proenzyme (50%) and the active form (50%)) purchased from Biomol (protein, listed as Homo sapiens)
# chain: MEALMARGALTGPLRALCLLGCLLSHAAAAPSPIIKFPGDVAPKTDKELAVQYLNTFYGCPKESCNLFVLKDTLKKMQKFFGLPQTGDLDQNTIETMRKPRCGNPDVANYNFFPRKPKWDKNQITYRIIGYTPDLDPETVDDAFARAFQVWSDVTPLRFSRIHDGEADIMINFGRWEHGDGYPFDGKDGLLAHAFAPGTGVGGDSHFDDDELWTLGEGQVVRVKYGNADGEYCKFPFLFNGKEYNSCTDTGRSDGFLWCSTTYNFEKDGKYGFCPHEALFTMGGNAEGQPCKFPFRFQGTSYDSCTTEGRTDGYRWCGTTEDYDRDKKYGFCPETAMSTVGGNSEGAPCVFPFTFLGNKYESCTSAGRSDGKMWCATTANYDDDRKWGFCPDQGYSLFLVAAHEFGHAMGLEHSQDPGALMAPIYTYTKNFRLSQDDIKGIQELYGASPDIDLGTGPTPTLGPVTPEICKQDIVFDGIAQIRGEIFFFKDRFIWRTVTPRDKPMGPLLVATFWPELPEKIDAVYEAPQEEKAVFFAGNEYWIYSASTLERGYPKPLTSLGLPPDVQRVDAAFNWSKNKKTYIFAGDKFWRYNEVKKKMDPGFPKLIADAWNAIPDNLDAVVDLQGGGHSYFFKGAYYLKLENQSLKSVKFGSIKSDWLGC
# What was measured:
# [1] = system: CD40, CD80, CD83, CD86, HLA-DR and CCR7 on DCs; test: Expression of maturation markers by DCs; format: cell-based, human
# Experimental: Antibodies. Allophycocyanin-conjugated antibody to CCR-7 (150503) was purchased from R&D Systems. Unconjugated (10 μg/mL for blocking experiments) or phycoerythrin-conjugated antibody to OX40L (11C3.1) was from Biolegend. Blocking antibody to IL-4 (8F12; 10 μg/mL) was from Acris. Antibodies to human Vβ chains covering 70% of the repertoire (10Test Beta Mark; Beckman Coulter) were used according to the manufacturer's instructions. Fluorescein isothiocyanate-conjugated antibody to IL-12p35/IL-12p70 (B-T21) and IFNAR1 (EP899Y) were from Abcam. Phycoerythrine-conjugated antibodies to IL-12p40/IL-12p70 (C8.6), IL-10 (B-T10), CD203c (FR3-16A11) were from Miltenyi Biotec. Blocking antibody to HLA-DQ (SPVL3; 20 μg/mL) was from NeoMarkers. […]
# Dendritic cell preparation and activation. […] Immature DCs were harvested on day 5 and matured using poly(I:C) at 5 μg/mL/10^6 DCs (Amersham) Secretion of IL-12p70, TNFα, IL-1β, IL-6, IL-8 and IL-10 was assessed on both immature and mature DCs using the Human Inflammatory Cytokine Cytometric Bead Array (BD Pharmingen).
# We next evaluated whether DCs could be involved in the polarization of MMP-2-specific CD4^+ T cells.
# [2] = system: CD4+ T cells from healthy donors; test: CD4+ T cells stimulated with autologous DCs loaded with whole MMP-2 protein, response to peptide pool; format: cell-based, human; settings: DCs incubated with MMP-2 protein (10 μM), 12 days
# Experimental: (A) MMP-2-specific CD4^+ T cell clones were generated and characterized as described in Experimental Procedures. Clone HD9828/52 is shown as a representative example. Epitope specificities were assessed after overnight stimulation with individual peptides (2 μM). IFNγ, TNFα and IL-4 release was measured by ELISA. (B) All MMP-2-specific CD4^+ T cell clones were characterized by staining for CD4, CD8 and TCR Vβ chain expression. Clone HD9828/52 is shown as a representative example. (C) To establish HLA class-II isotype restriction, CD4^+ T cell clones were stimulated by corresponding peptides in the absence or presence of blocking mAb (10 μg/mL) for HLA-DP, HLA-DQ or HLA-DR and IFNγ release was measured by ELISA. (D) Purified CD4^+/CD25^− cells were stimulated for 12 days by autologous DCs incubated with MMP-2 protein (10 μM) and subsequently washed. MMP-2-specific CD4^+ T cells were detected by intracellular staining of IFNγ, TNFα and IL-4 after 6 hours of stimulation with MMP-2 peptide pool (2 μM). Numbers in the upper right quadrants are the percentages of each population.
# T Cell culture, stimulation and priming. Peripheral blood mononuclear cells (PBMCs) were purified from healthy donor-(HD) or cord blood donor-(CB) derived buffy coats (New York Blood Center) by Ficoll-Paque Plus (GE Healthcare) centrifugation. CD4^+/CD25^− cells were enriched (>90%) by magnetic cell sorting (Miltenyi Biotec) and primed/stimulated for 12-15 days either with irradiated (35Gy) autologous CD4^− cells or with autologous mature DCs in IMDM (GIBCO) supplemented with 1 mM HEPES (Life Technologies), 2 mM L-glutamine (Sigma), […] (Sigma) and 5% heat inactivated pooled human serum (PHS; Valley Biomedical) in the presence of rhIL-2 (10 UI/mL) and IL7 (5 ng/mL) (R&D Systems). Antigen presenting cells (CD4^− cells or DCs) were loaded either with peptides (2 μM) or with the MMP-2 protein (10 μg/mL) for 2 and 5 h, respectively. DCs were matured using the TLR3 agonist poly(I:C) at 5 μg/mL/10^6 DCs (Amersham). To generate T cell clones, we originally relied on our published methodology (Godefroy et al., 2006; Godefroy et al., 2007; the entire contents of each of which is incorporated herein by reference), involving enrichment of IFNγ-secreting cells upon short-term culture and peptide stimulation to generate MMP-2 responsive clones. Briefly, CD4^+ T cells were stimulated by CD4^− cells irradiated and pulsed with peptides for 12 days in the presence of rhIL-2 and rhIL-7. CD4^+ T cells were then restimulated with peptides for 3 hours before capturing IFNγ-secreting specific cells using a bispecific antibody coating T cells and capturing produced IFNγ. […]
# Intracellular staining T-bet and GATA-3 expression was measured on resting T cells. […]
molecule,measurement,setting,value
B1,"expression levels of maturation markers CD40, CD80, CD83, CD86, HLA-DR and CCR7",[1],not significantly affected
same,cells secreting IFNγ,[2]; donor HD6026,0.12%
same,cells secreting IL-4,[2]; donor HD6026,0.73%
same,cells secreting IFNγ,[2]; donor HD6028,0.17%
same,cells secreting IL-4,[2]; donor HD6028,1.99%
